Measurements as given in publication PMC10761123 (RNA Biology, 2023).

Molecular target: the molecule itself
Assay: crystal structure

B1: Arabidopsis thaliana PUMY K185A mutant, C-terminal His-tagged, as crystallized (enzyme, UniProt Q84K35 21-330, looked up)
chain: EANNKLRSLVKISPQVSEALSNGRAVVALESTIISHGMPYPQNLQTAKEVESIVRENGAIPATIAILNGVPCIGLSEEELERLASLGKSVQKTAGRDIANVVATRGNGATTVSATLFFASMVGIQVFVTGGIGGVHRHANHSMDISSDLTALGRTPIAVISAGVASILDIPKTLEYLETQEVYVAAYKSDEFPAFFTEKSGCKAPSRVNSPEDCARVIDANMKLNRQAGILFAIPIPKHHSAAGNLIESATQRALTEAREQNVTGNAETPFLLARVNELTGGTSLAANIALVKNNALIGSQIAVALSQLM
- stoichiometry N: 3
